In the data set the target is T1, UrpR (CCNA_01362), native in cells (Caulobacter crescentus NA1000).
T1 chain: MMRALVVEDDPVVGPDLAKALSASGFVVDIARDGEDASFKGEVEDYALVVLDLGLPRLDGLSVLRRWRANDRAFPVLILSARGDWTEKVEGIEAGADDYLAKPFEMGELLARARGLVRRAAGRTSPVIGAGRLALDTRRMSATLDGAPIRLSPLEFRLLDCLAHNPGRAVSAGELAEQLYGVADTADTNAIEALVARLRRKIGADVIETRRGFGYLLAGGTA
Briefly: cell_activity; P1361-gfp induction in wild type with 20 uM U; U induction abolished by CCNA_01362 deletion.

B1: P1361 promoter (dsDNA)
DNA 1: GAACGATAGCGCCGCCTGCGAGCGCGACCTCAGGCCTCGGACGAAGCGCGTCCGGGGCCTTTTCTTGTCGATGTTCAGCGCCTGGTTACCGGCGATGGCGCGGTGTCAGCGTTCGGGCGTTGCGATGCGTCAGGAGCGTGTCAGGATGCCTGTGGAATCCTAAGCGCCATCACCCAGTCCCGATCTTTCC
DNA 2: GGAAAGATCGGGACTGGGTGATGGCGCTTAGGATTCCACAGGCATCCTGACACGCTCCTGACGCATCGCAACGCCCGAACGCTGACACCGCGCCATCGCCGGTAACCAGGCGCTGAACATCGACAAGAAAAGGCCCCGGACGCGCTTCGTCCGAGGCCTGAGGTCGCGCTCGCAGGCGGCGCTATCGTTC
The molecule B1 yielded an activity of 10.5 fold.

Values taken from patent US20240376556, “BIOSENSORS FOR DETECTING AND/OR NEUTRALIZING BIOAVAILABLE URANIUM AND RELATED U-SENSITIVE GENETIC MOLECULAR COMPONENTS, GENE CASSETTES, VECTORS, GENETIC CIRCUITS, COMPOSITIONS, METHODS AND SYSTEMS” (LAWRENCE LIVERMORE NATIONAL SECURITY, LLC, published 2024).
